Measured values reported in patent publication US20240382605A1, “CONJUGATED OLIGONUCLEOTIDES AND USES THEREOF” (Ionis Pharmaceuticals, Inc., priority 2021, published 2024).

Experiments:
mouse DMPK RNA = assay: Example 8: mouse DMPK RNA and ED50 in tissues of hTFR^KI/+ knock in mice, multiple dose (RTPCR, day 15); type: in vivo;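 further: conjugated oligonucleotide given as three doses to hTFR^KI/+ knock-in mice, tissues taken at day 15 and mouse DMPK RNA quantified by real-time RT-PCR against PBS-treated controls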
Protocol: The activity and tolerability of modified oligonucleotides conjugated to CD71 bicycle ligands were tested in hTFR^KI/+ knock in mice (described herein above).
(§1) Each mouse received an intravenous (i.v.) administration or subcutaneous (s.c.) administration of conjugated modified oligonucleotide for a total of 3 doses (on Days 1, 5, and 9) at doses indicated in the table below. […] A group of 4 mice received PBS as a negative control.
The mice were sacrificed six days post final administration (on day 15), and RNA was extracted from various muscle tissues (including quadriceps (Quad), tibialis anterior (TA), diaphragm, triceps, heart, gastrocnemius (gastroc)), aorta, sciatic nerve, and liver tissue for quantitative real time RTPCR analysis to measure amount of mouse DMPK RNA using mouse primer probe set RTS3181 (described herein above).

[1] = Example 8: hematology assays / blood cell counts in hTFR^KI/+ knock in mice; type: in vivo, mouse; settings: for BAS (basophils) / LYM (lymphocytes) / MON (monocytes) / NEU (neutrophils) / PLT (platelets) / RETI (reticulocytes): day 15; for Mean corpuscular volume (MCV) / hematocrit (HCT) / hemoglobin (HGB) / mean corpuscular hemoglobin (MCH) / mean corpuscular hemoglobin concentration (MCHC) / red blood cell (RBC) count / white blood cell (WBC) count: blood day 15;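 on all read-outs here: mice given conjugated modified oligonucleotide, three doses total, blood cell counts measured at sacrifice, PBS-treated group of 4 mice serves as negative control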
Description: as §1
Blood obtained from mice on the day the mice were sacrificed (day 15) were sent to IDEXX BioResearch for measurement of blood cell counts. Counts taken include red blood cell (RBC) count, white blood cell (WBC) count, hemoglobin (HGB), hematocrit (HCT), Mean corpuscular volume (MCV), mean corpuscular hemoglobin (MCH), and mean corpuscularhemoglobin concentration (MCHC). Individual white blood cell counts, such as that of monocytes (MON), neutrophils (NEU), lymphocytes (LYM), eosinophils (EOS), basophils (BAS), reticulocytes, and platelets were evaluated.

[2] = Example 8: body and organ weights in hTFR^KI/+ knock in mice; type: in vivo, mouse; settings: for Organ weight Kidney / Organ weight Liver / Organ weight Spleen: day 15
Protocol: as §1
Liver, kidney, and spleen weights were measured on the day the mice were sacrificed (day 15), and the average organ weights for each group are presented in the tables below.

[3] = Example 8: plasma chemistry markers in hTFR^KI/+ knock in mice; type: in vivo, mouse; settings: plasma day 15;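 further: plasma levels read on an automated clinical chemistry analyzer after three doses of conjugated modified oligonucleotide, with a PBS-treated group as negative control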
Description: as §1
To evaluate the effect of modified oligonucleotides on liver and kidney function, plasma levels of albumin (ALB), alanine aminotransferase (ALT), aspartate aminotransferase (AST), blood urea nitrogen (BUN), total bilirubin (TBIL), total Protein (PROT), Creatine (CREAT), and Creatine Kinase (CK) were measured on the day the mice were sacrificed (day 15) using an automated clinical chemistry analyzer (Hitachi Olympus AU400c, Melville, NY).

[4] = reduction of mouse DMPK RNA, i.v., 3 doses on Days 1, 5, 9

Substance: 1590463-BCY17896: modified oligonucleotide 1590463 conjugated to CD71 bicycle ligand BCY17896 through a BCN linker (CPXDAYLGCXSYCX; not fully specified; non-natural residues; cyclised or stapled)
- Diaphragm ED50 (mouse DMPK RNA; [4]): 1.4 mg/kg
- Gastrocnemius ED50 (mouse DMPK RNA; [4]): 2.9 mg/kg
- Quadriceps ED50 (mouse DMPK RNA; [4]): 2.6 mg/kg
- Tibialis Anterior ED50 (mouse DMPK RNA; [4]): 3.3 mg/kg
- BAS (basophils) ([1]; 1 mg/kg i.v.): 0.07%
- LYM (lymphocytes) ([1]; 1 mg/kg i.v.): 85%
- MON (monocytes) ([1]; 1 mg/kg i.v.): 5%
- NEU (neutrophils) ([1]; 1 mg/kg i.v.): 8%
- PLT (platelets) ([1]; 1 mg/kg i.v.): 1170 10^9/L
- RETI (reticulocytes) ([1]; 1 mg/kg i.v.): 439 10^3/μL
- BAS (basophils) ([1]; 10 mg/kg i.v.): 0.07%
- LYM (lymphocytes) ([1]; 10 mg/kg i.v.): 84%
- MON (monocytes) ([1]; 10 mg/kg i.v.): 6%
- NEU (neutrophils) ([1]; 10 mg/kg i.v.): 8%
- PLT (platelets) ([1]; 10 mg/kg i.v.): 1087 10^9/L
- RETI (reticulocytes) ([1]; 10 mg/kg i.v.): 389 10^3/μL
- Body weight Day 1 ([2]; 1 mg/kg i.v.): 27 g
- Body weight Day 15 ([2]; 1 mg/kg i.v.): 28 g
- Organ weight Kidney ([2]; 1 mg/kg i.v.): 0.35 g
- Organ weight Liver ([2]; 1 mg/kg i.v.): 1.49 g
- Organ weight Spleen ([2]; 1 mg/kg i.v.): 0.07 g
- Body weight Day 1 ([2]; 10 mg/kg i.v.): 24 g
- Body weight Day 15 ([2]; 10 mg/kg i.v.): 25 g
- Organ weight Kidney ([2]; 10 mg/kg i.v.): 0.33 g
- Organ weight Liver ([2]; 10 mg/kg i.v.): 1.39 g
- Organ weight Spleen ([2]; 10 mg/kg i.v.): 0.07 g

Substance: 1590463 BCY17896 (CPXDAYLGCXSYCX; not fully specified; non-natural residues; cyclised or stapled)
- Diaphragm mouse DMPK RNA (% control) (mouse DMPK RNA; i.v. 1 mg/kg on Days 1, 5, 9): 60 % control
- Gastrocnemius mouse DMPK RNA (% control) (mouse DMPK RNA; i.v. 1 mg/kg on Days 1, 5, 9): 75 % control
- Heart mouse DMPK RNA (% control) (mouse DMPK RNA; i.v. 1 mg/kg on Days 1, 5, 9): 81 % control
- Quadriceps mouse DMPK RNA (% control) (mouse DMPK RNA; i.v. 1 mg/kg on Days 1, 5, 9): 74 % control
- Tibialis Anterior mouse DMPK RNA (% control) (mouse DMPK RNA; i.v. 1 mg/kg on Days 1, 5, 9): 84 % control
- Diaphragm mouse DMPK RNA (% control) (mouse DMPK RNA; i.v. 10 mg/kg on Days 1, 5, 9): 16 % control
- Gastrocnemius mouse DMPK RNA (% control) (mouse DMPK RNA; i.v. 10 mg/kg on Days 1, 5, 9): 28 % control
- Heart mouse DMPK RNA (% control) (mouse DMPK RNA; i.v. 10 mg/kg on Days 1, 5, 9): 56 % control
- Quadriceps mouse DMPK RNA (% control) (mouse DMPK RNA; i.v. 10 mg/kg on Days 1, 5, 9): 23 % control
- Tibialis Anterior mouse DMPK RNA (% control) (mouse DMPK RNA; i.v. 10 mg/kg on Days 1, 5, 9): 28 % control
- Creatine (CREAT) ([3]; i.v. 1 mg/kg on Days 1, 5, 9): 0.16 mg/dL
- alanine aminotransferase (ALT) ([3]; i.v. 1 mg/kg on Days 1, 5, 9): 40 U/L
- albumin (ALB) ([3]; i.v. 1 mg/kg on Days 1, 5, 9): 2.82 g/dL
- aspartate aminotransferase (AST) ([3]; i.v. 1 mg/kg on Days 1, 5, 9): 111 U/L
- blood urea nitrogen (BUN) ([3]; i.v. 1 mg/kg on Days 1, 5, 9): 24 mg/dL
- total Protein (PROT) ([3]; i.v. 1 mg/kg on Days 1, 5, 9): 4.83 g/dL
- total bilirubin (TBIL) ([3]; i.v. 1 mg/kg on Days 1, 5, 9): 0.12 mg/dL
- Creatine (CREAT) ([3]; i.v. 10 mg/kg on Days 1, 5, 9): 0.16 mg/dL
- alanine aminotransferase (ALT) ([3]; i.v. 10 mg/kg on Days 1, 5, 9): 34 U/L
- albumin (ALB) ([3]; i.v. 10 mg/kg on Days 1, 5, 9): 2.70 g/dL
- aspartate aminotransferase (AST) ([3]; i.v. 10 mg/kg on Days 1, 5, 9): 119 U/L
- blood urea nitrogen (BUN) ([3]; i.v. 10 mg/kg on Days 1, 5, 9): 22 mg/dL
- total Protein (PROT) ([3]; i.v. 10 mg/kg on Days 1, 5, 9): 4.57 g/dL
- total bilirubin (TBIL) ([3]; i.v. 10 mg/kg on Days 1, 5, 9): 0.11 mg/dL
- Mean corpuscular volume (MCV) ([1]; i.v. 1 mg/kg on Days 1, 5, 9): 40 fL
- hematocrit (HCT) ([1]; i.v. 1 mg/kg on Days 1, 5, 9): 47%
- hemoglobin (HGB) ([1]; i.v. 1 mg/kg on Days 1, 5, 9): 15 g/dL
- mean corpuscular hemoglobin (MCH) ([1]; i.v. 1 mg/kg on Days 1, 5, 9): 13 pg
- mean corpuscular hemoglobin concentration (MCHC) ([1]; i.v. 1 mg/kg on Days 1, 5, 9): 32 g/dL
- red blood cell (RBC) count ([1]; i.v. 1 mg/kg on Days 1, 5, 9): 12 10^12/L
- white blood cell (WBC) count ([1]; i.v. 1 mg/kg on Days 1, 5, 9): 8 10^3/μL
- Mean corpuscular volume (MCV) ([1]; i.v. 10 mg/kg on Days 1, 5, 9): 41 fL
- hematocrit (HCT) ([1]; i.v. 10 mg/kg on Days 1, 5, 9): 47%
- hemoglobin (HGB) ([1]; i.v. 10 mg/kg on Days 1, 5, 9): 15 g/dL
- mean corpuscular hemoglobin (MCH) ([1]; i.v. 10 mg/kg on Days 1, 5, 9): 13 pg
- mean corpuscular hemoglobin concentration (MCHC) ([1]; i.v. 10 mg/kg on Days 1, 5, 9): 31 g/dL
- red blood cell (RBC) count ([1]; i.v. 10 mg/kg on Days 1, 5, 9): 11 10^12/L
- white blood cell (WBC) count ([1]; i.v. 10 mg/kg on Days 1, 5, 9): 9 10^3/μL

Substance: 1590463 BCY17901 (CPXDAYLGCXSYCEPWX; not fully specified; non-natural residues; cyclised or stapled)
- Diaphragm mouse DMPK RNA (% control) (mouse DMPK RNA; i.v. 1 mg/kg on Days 1, 5, 9): 57 % control
- Gastrocnemius mouse DMPK RNA (% control) (mouse DMPK RNA; i.v. 1 mg/kg on Days 1, 5, 9): 74 % control
- Heart mouse DMPK RNA (% control) (mouse DMPK RNA; i.v. 1 mg/kg on Days 1, 5, 9): 75 % control
- Quadriceps mouse DMPK RNA (% control) (mouse DMPK RNA; i.v. 1 mg/kg on Days 1, 5, 9): 79 % control
- Tibialis Anterior mouse DMPK RNA (% control) (mouse DMPK RNA; i.v. 1 mg/kg on Days 1, 5, 9): 71 % control
- Diaphragm mouse DMPK RNA (% control) (mouse DMPK RNA; i.v. 10 mg/kg on Days 1, 5, 9): 14 % control
- Gastrocnemius mouse DMPK RNA (% control) (mouse DMPK RNA; i.v. 10 mg/kg on Days 1, 5, 9): 15 % control
- Heart mouse DMPK RNA (% control) (mouse DMPK RNA; i.v. 10 mg/kg on Days 1, 5, 9): 44 % control
- Quadriceps mouse DMPK RNA (% control) (mouse DMPK RNA; i.v. 10 mg/kg on Days 1, 5, 9): 14 % control
- Tibialis Anterior mouse DMPK RNA (% control) (mouse DMPK RNA; i.v. 10 mg/kg on Days 1, 5, 9): 14 % control
- Creatine (CREAT) ([3]; i.v. 1 mg/kg on Days 1, 5, 9): 0.15 mg/dL
- alanine aminotransferase (ALT) ([3]; i.v. 1 mg/kg on Days 1, 5, 9): 65 U/L
- albumin (ALB) ([3]; i.v. 1 mg/kg on Days 1, 5, 9): 2.76 g/dL
- aspartate aminotransferase (AST) ([3]; i.v. 1 mg/kg on Days 1, 5, 9): 107 U/L
- blood urea nitrogen (BUN) ([3]; i.v. 1 mg/kg on Days 1, 5, 9): 23 mg/dL
- total Protein (PROT) ([3]; i.v. 1 mg/kg on Days 1, 5, 9): 4.73 g/dL
- total bilirubin (TBIL) ([3]; i.v. 1 mg/kg on Days 1, 5, 9): 0.13 mg/dL
- Creatine (CREAT) ([3]; i.v. 10 mg/kg on Days 1, 5, 9): 0.15 mg/dL
- alanine aminotransferase (ALT) ([3]; i.v. 10 mg/kg on Days 1, 5, 9): 35 U/L
- albumin (ALB) ([3]; i.v. 10 mg/kg on Days 1, 5, 9): 2.63 g/dL
- aspartate aminotransferase (AST) ([3]; i.v. 10 mg/kg on Days 1, 5, 9): 98 U/L
- blood urea nitrogen (BUN) ([3]; i.v. 10 mg/kg on Days 1, 5, 9): 23 mg/dL
- total Protein (PROT) ([3]; i.v. 10 mg/kg on Days 1, 5, 9): 4.53 g/dL
- total bilirubin (TBIL) ([3]; i.v. 10 mg/kg on Days 1, 5, 9): 0.14 mg/dL
- Mean corpuscular volume (MCV) ([1]; i.v. 1 mg/kg on Days 1, 5, 9): 40 fL
- hematocrit (HCT) ([1]; i.v. 1 mg/kg on Days 1, 5, 9): 48%
- hemoglobin (HGB) ([1]; i.v. 1 mg/kg on Days 1, 5, 9): 15 g/dL
- mean corpuscular hemoglobin (MCH) ([1]; i.v. 1 mg/kg on Days 1, 5, 9): 13 pg
- mean corpuscular hemoglobin concentration (MCHC) ([1]; i.v. 1 mg/kg on Days 1, 5, 9): 31 g/dL
- red blood cell (RBC) count ([1]; i.v. 1 mg/kg on Days 1, 5, 9): 12 10^12/L
- white blood cell (WBC) count ([1]; i.v. 1 mg/kg on Days 1, 5, 9): 7 10^3/μL
- Mean corpuscular volume (MCV) ([1]; i.v. 10 mg/kg on Days 1, 5, 9): 41 fL
- hematocrit (HCT) ([1]; i.v. 10 mg/kg on Days 1, 5, 9): 47%
- hemoglobin (HGB) ([1]; i.v. 10 mg/kg on Days 1, 5, 9): 15 g/dL
- mean corpuscular hemoglobin (MCH) ([1]; i.v. 10 mg/kg on Days 1, 5, 9): 13 pg
- mean corpuscular hemoglobin concentration (MCHC) ([1]; i.v. 10 mg/kg on Days 1, 5, 9): 31 g/dL
- red blood cell (RBC) count ([1]; i.v. 10 mg/kg on Days 1, 5, 9): 11 10^12/L
- white blood cell (WBC) count ([1]; i.v. 10 mg/kg on Days 1, 5, 9): 9 10^3/μL
